For one experiment, the system named is P-MAPK. Nature of the experiment: P-MAPK inhibition. The settings on record: U-87 MG cells. The format is cell-based, human. An excerpt: Although the correlation between MAPK activity and Ad-E1A-COX ability to replicate has been shown (Ahmed et al., 2003), the inventors have designed studies to assess the ability of retargeted constructs to replicate in glioma cells with high or low MAPK activity. To characterize the effects of the insertion of the 3′ UTR on E1A expression, inhibitors of kinases signaling, PD98059 (p42/p44 MAPK inhibitor), and for specificity testing: SB203580 (p38 MAPK inhibitor) and LY294002 (PI3K inhibitor) will be used. The inventors will use an isogenic U-87 MG system, containing a stably integrated, IPTG-inducible activated Ha-rasVal12 cDNA (Sheng et al., 2000). This model system is based in cells that only differ in the expression of an activated variant of the Hras oncogene, Ha-rasVal12 (Sheng et al., 2000). The will assess whether PTGS2 3′ UTR-mediated Ad-E1A-COX-Tie2 depends on the P-MAPK pathway. […] The replication capability of Ad-E1A-COX-Tie2 in U87-MG cells untreated and treated with PD98059 (and the control inhibitors) will be assessed. The inventors contemplate that inhibition of P-MAPK activity by PD98059 will greatly reduce the ability Ad-E1A-COX-Tie2 to replicate even with high expression of Ha-rasVal12 induced by IPTG in the isogenic U-87 MG. […]

Experiment [1] concerns the target T1, Tie2 (Homo sapiens, UniProt Q02763). Nature of the experiment: Binding of T4 peptide to Tie2. The settings on record: U-251 MG isogenic system and A172. Also on record: expressed in transfected cells; host or cells: U-251 MG stably transfected with Tie-2 cDNA (parental U-251 MG is Tie2-negative); also A172 cells with endogenous Tie2. From the text: Testing the binding of the proposed Tie2-ligand, T4, the inventors synthesized the peptide linked to FAM signal that was suitable for flow cytometric detection. Peptide was synthesized by automatic solid phase chemistry using Fmoc strategy. The N-terminal aminohexanoic acid was labeled by coupling 5(6)-carboxyfluorescein. Peptides were purified to >98% purity by reverse phase HPLC.

Experiment [2] has as its target T1, Tie2. Also noted: expressed in transfected cells; host or cells: U-251 MG stably transfected with Tie-2 cDNA (parental U-251 MG is Tie2-negative); also A172 cells with endogenous Tie2. The settings on record: Tournaire et al. (2004); cited from earlier work.
In experiment [3] the test system is ERK1 (p44MAPK) and ERK2 (p42MAPK). Nature of the experiment: ERK1/2 (p42/p44 MAPK) phosphorylation, Western blot. In kind it is cell-based, human. How it is done:
HUVEC and U-87 MG cells were mock-, AdCMV- or AdAng-2-Infected. 24 hours later they were overnights serum-starved, and then stimulated with […] for 10 min. Cell lysates were collected and analyzed by Western blotting for expression of phospho- and total p42/p44 MAPK. Ang-1 increased ERK 1/2 phosphorylation what was inhibited by the viral-transduced Ang-2.
The Ang-2/Ang-1/Tie2 system has been studied in endothelial cells, and different pathways have been reported as involved in the cascade signaling; these include phosphotidylinositol […] (PI3-K), focal adhesion kinase, Raf/Ras/mitogen-activated protein kinase (MAPK), and Dok-R/Dok-2/Nck/Pak (Yoon et al., 2003). […] These cascades modulate protein synthesis and/or transcriptional activation. […] To measure MAPK activity, the inventors measured the degree of phosphorylation of two MAPKs, ERK1 (p44MAPK) and ERK2 (p42MAPK).
The Ang-2/Ang1/Tie2 system has been studied in endothelial cells, and different pathways have been reported as involved in the cascade signaling. […] MAPK activity was measured by the degree of phosphorylation of two MAPKs, ERK1 (p44^MAPK) and ERK2 (p42^MAPK).
A general note: Immunoblotting shows a protein as a band on a membrane.

Experiment [4] addresses T1, Tie2. Nature of the experiment: Tie2 phosphorylation, immunoprecipitation. As to conditions: U-87 MG, 500 ng/ml, 10 min. The format is cell-based. How it is done: To explore the regulation of Tie2 signaling by Angs in U-87 MG cells, Tie2 was immunoprecipitated from membrane fractions of U-87 MG cells treated with rAng1 (500 ng/ml) for 10 min, and phosphorylation of Tie2 was addressed using anti-phosphotyrosine antibody.

The subject of another experiment is Ras. Kind of experiment: Ras activity (Ras-GTP). In kind it is cell-based, human. The settings on record: U-87 MG. The protocol: In addition, the inventors have obtained data regarding the upstream effector of p42/p44 MAPK, Ras, by analyzing Ras activity in Ang1-estimulated U-87 MG cells. Ras activity, which detects active GTP-bound Ras, was performed by immunoprecipitation of Ras-Raf complexes (contains only active Ras), and consequent western blotting detection of Ras-GTP molecule.

The subject of another experiment is Akt. Kind of experiment: Akt phosphorylation. In kind it is cell-based, human. As to conditions: U-87 MG, 100-500 ng/ml. From the text:
Consistant with previous reports, Ang-1/Tie signaling in endothelial cells in vitro involves PI3K/Akt activation (DeBusk et al., 2004; Papapetropoulos et al., 2000).

The subject of experiment [5] is U-87 MG cells. Kind of experiment: Glioma cell adhesion assay. In kind it is cell-based, human. As to conditions: 1 hr. An excerpt: It was reported that Ang1 promotes adhesion of Tie2+ hematopoietic stem cells to fibronectin and collagen and also promotes the interaction of endothelial cells with surrounding mesenchymal cells and the extracellular matrix (Davis et al., 1996; Suri et al., 1996; Arai et al., 2004). Therefore, the inventors analyzed the effects of Ang1/Tie2 signalling on glioma adhesion. Briefly, 96-well dishes were coated for 2 hr at room temperature (RT) with rAng1 diluted in PBS. Wells were then blocked for 30 min at RT with 0.5% heat-inactivated BSA in PBS (80° C. for 10 min) and washed three times with PBS before adding cells. U-87 MG cells were harvested and resuspended. 30,000 cells were seeded/well, and the plate was incubated at 37° C. for 1 hr. Nonadherent cells were removed and attached cells were fixed in 4% paraformaldehyde and stained with 0.2% crystal violet. Cells were solubilized in DMSO and absorbance of each well was read at 570 nm. […] Similar results were obtained when Tie2− and Tie2+U-251 MG were used. In addition, the possibility of Ang1-induced adhesion has been assessed. For that study, the wells were coated with several ECM and then, U-87 MG cells that were previously stimulated with Ang1 (BSA control), were plated on those wells. […]

The subject of experiment [6] is U-87 MG cells. Kind of experiment: Chemotactic migration assay (Transwell). In kind it is cell-based, human. As to conditions: 24 h. How it is done: Witzenbichler et al. (1998) have reported the chemotactic properties of Ang1 for Tie2-endothelial cells. A chemotaxis assay was performed in the presence or absence of Ang1. Incubation with various concentrations of Ang1 enhanced chemotactic migration of U-87 MG cells. Migration assay was performed as described previously (Gomez-Manzano, 2003). Briefly, the lower surface of the filter was coated with gelatin. 600 μl of DMEM/F-12 (1:1) containing rAng1 and 0.1% BSA was added into lower compartment of the Transwell chamber, and 100 μl of cell suspension was added in the upper chamber. After 24 h of incubation, the filters were fixed, stained with H/E, and the cells on the lower surface of the filters were counted at 400× with Zeiss microscope. Assays were performed in triplicate. […] To distinguish between chemotactic and chemokinetics effect of Ang1 on U-87 MG, an analysis was performed where similar doses of Ang1 were present above and below the filter. Significant migration was observed only when a concentration gradient of Ang1 was established, a finding typical of factors inducing chemotaxis.

The subject of another experiment is Dok-R. Kind of experiment: Tie2 association with Dok-R. The settings on record: stable transfected Tie2 U-251 MG. In kind it is cell-based, human. An excerpt: Tie2 can also recruit additional signaling molecules that participate in cellular pathways that affect the shape and migratory properties of cells. In this regard, the Tie2-associated docking protein Dok-R can potentiate NCK-dependent endothelial cell migration in response to Ang1 (Master et al., 2001; Jones et al., 2003).

Where no end group is shown, it is not given here. FAM = 5(6)-carboxyfluorescein label; Ahx = NCCCCCC(=O)O

T1 sequence (Q02763 23-1124): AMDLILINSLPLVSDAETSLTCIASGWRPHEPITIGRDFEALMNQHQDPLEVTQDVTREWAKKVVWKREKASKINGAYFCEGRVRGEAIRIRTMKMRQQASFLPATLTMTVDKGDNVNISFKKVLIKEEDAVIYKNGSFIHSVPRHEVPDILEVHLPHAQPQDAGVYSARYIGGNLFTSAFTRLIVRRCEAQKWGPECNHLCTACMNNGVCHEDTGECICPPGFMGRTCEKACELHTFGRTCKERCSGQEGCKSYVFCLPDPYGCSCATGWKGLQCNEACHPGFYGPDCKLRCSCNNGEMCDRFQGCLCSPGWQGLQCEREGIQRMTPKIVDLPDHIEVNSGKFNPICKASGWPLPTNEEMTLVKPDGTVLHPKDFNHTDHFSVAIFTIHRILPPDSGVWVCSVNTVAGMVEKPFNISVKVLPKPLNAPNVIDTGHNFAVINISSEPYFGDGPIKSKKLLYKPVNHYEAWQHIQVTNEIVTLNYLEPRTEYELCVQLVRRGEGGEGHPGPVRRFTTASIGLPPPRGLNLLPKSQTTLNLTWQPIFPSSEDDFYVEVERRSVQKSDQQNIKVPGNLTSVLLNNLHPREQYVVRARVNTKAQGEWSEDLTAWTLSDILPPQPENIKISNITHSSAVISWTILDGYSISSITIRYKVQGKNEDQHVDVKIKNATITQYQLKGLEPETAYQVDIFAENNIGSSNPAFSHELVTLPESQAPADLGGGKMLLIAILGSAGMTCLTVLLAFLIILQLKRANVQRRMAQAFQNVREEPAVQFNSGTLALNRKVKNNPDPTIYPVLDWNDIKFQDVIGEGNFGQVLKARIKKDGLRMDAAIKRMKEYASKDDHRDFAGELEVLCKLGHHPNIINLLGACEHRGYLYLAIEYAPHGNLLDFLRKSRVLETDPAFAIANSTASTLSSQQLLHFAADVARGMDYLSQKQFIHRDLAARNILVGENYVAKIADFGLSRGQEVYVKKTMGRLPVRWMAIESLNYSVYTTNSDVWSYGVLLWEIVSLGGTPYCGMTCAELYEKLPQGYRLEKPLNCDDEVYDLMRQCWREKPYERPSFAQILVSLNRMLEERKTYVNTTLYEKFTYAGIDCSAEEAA

As for `COc1cccc(-c2cc(=O)c3ccccc3o2)c1N` [PD98059], in the experiment on P-MAPK, the P-MAPK expression entry was “effectively inhibited P-MAPK expression”.
In the case of “NLLMAAS ({FAM-Ahx}-NLLMAAS; also: 5(6)-carboxyfluorescein label (site not given here)) [T4]”, in the experiment with Tie2 [1], the “binding to cell membrane by flow cytometry” value was “binds preferentially to the membrane of cells overexpressing Tie2”. In addition, in the experiment with Tie2 [2], the “binding of Ang1 and Ang-2 to the Tie2 receptor” value is on record as “completely abolished”.

B1: rhAng-1: recombinant angiopoietin-1 protein (protein)
chain: SNQRRSPENSGRRYNRIQHGQCAYTFILPEHDGNCRESTTDQYNTNALQRDAPHVEPDFSSQKLQHLEHVMENYTQWLQKLENYIVENMKSEMAQIQQNAVQNHTATMLEIGTSLLSQTAEQTRKLTDVETQVLNQTSRLEIQLLENSLSTYKLEKQLLQQTNEILKIHEKNSLLEHKILEMEGKHKEELDTLKEEKENLQGLVTRQTYIIQELEKQLNRATTNNSVLQKQQLELMDTVHNLVNLCTKEGVLLKGGKREEEKPFRDCADVYQAGFNKSGIYTIYINNMPEPKKVFCNMDVNGGGWTVIQHREDGSLDFQRGWKEYKMGFGNPSGEYWLGNEFIFAITSQRQYMLRIELMDWEGNRAYSQYDRFHIGNEKQNYRLYLKGHTGTAGKQSSLILHGADFSTKDADNDNCMCKCALMLTGGWWFDACGPSNLNGMFYTAGQNHGKLNGIKWHYFKGPSYSLRSTTMMIRPLDF
As for B1, the ERK1/2 phosphorylation entry is “increased ERK1/2 phosphorylation” in experiment [3] (HU-VEC-C endothelial cells, 100 ng/ml) and “increased ERK1/2 phosphorylation” in experiment [3] (U-87 MG). Besides, the Tie2 phosphorylation result with Tie2 [4] was “induced phosphorylation of Tie2”. In the experiment on Ras, the Ras activity entry is listed as “Ras activity increases”. The Akt phosphorylation result with Akt was “did not modify the pattern of phosphorylation of the Akt molecule”. The “adhesion of U-87 cells to Ang1-coated wells” value with U-87 MG cells [5] is “increasing adhesion properties”. The chemotactic migration entry in the experiment with U-87 MG cells [6] is given as “significant increase in directed migration”. In addition, in the experiment with Dok-R, the “Tie2 association with Dok-R” value is recorded as “results in Tie2 association with Dok-R protein”.

These data come from patent publication US10080774B2, “Oncolytic adenovirus armed with therapeutic genes” (priority 2002, dated 2018).
